Test [1] has as its target T1, human programmed cell death protein 1 (hPD-1) C93S (aa 24-167) (Homo sapiens, UniProt Q15116, C93S).
T1 construct: made as a fusion with a TEV site and human Fc; the Fc was cut off with TEV protease; source: Expi293F, purified (Protein A, TEV cleavage of Fc, SEC; monomer fractions); not shown: Fc (human), C-terminal, cleaved
In words: SPR; Carterra LSA; Fab from the ammonium sulfate precipitate of the culture supernatant immobilised on a NiHC200M chip; hPD-1 (1-1024 nM) or mPD-1-Fc (4-1024 nM) as analyte, fourfold dilution series, no regeneration; HBS-EP pH 7.4, 25 °C; medians over the spots of a construct, KD = koff/kon. Conditions: one partner purified. An outline of the steps:
(§1)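 Fabs from Brevibacillus culture supernatants were ammonium sulfate-precipitated, redissolved in HBS-EP and captured in duplicate on a NiHC200M chip (Carterra LSA, 25 °C). Human PD-1 (1–1024 nM) or mouse PD-1-Fc (4–1024 nM) flowed as fourfold series without regeneration, with 10 min association and 5 min dissociation; unconfirmed binders were set to kon 10^3 […], koff 10^−2 s^−1. Rates came from kdka model fits (slow- or fast-dissociation settings, best fit); KD is koff/kon from per-construct medians.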
On the technique in general: SPR reads the build-up and loss of mass on a sensor chip optically.

Test [2] concerns the target T2, mouse programmed cell death protein 1 Fc fusion protein (mPD-1-Fc), mPD-1 C60S (aa 25-167) (Mus musculus, UniProt Q02242, stabilised).
T2 construct: not cleaved; source: Expi293F, purified (Protein A, SEC; dimeric fraction); not shown: Fc (human), C-terminal, kept
The description is as above. Conditions: one partner purified. An outline of the steps:
as §1

A value given as a limit tells only on which side of the number the result lay.

T1 sequence (Q15116 24-167 C93S): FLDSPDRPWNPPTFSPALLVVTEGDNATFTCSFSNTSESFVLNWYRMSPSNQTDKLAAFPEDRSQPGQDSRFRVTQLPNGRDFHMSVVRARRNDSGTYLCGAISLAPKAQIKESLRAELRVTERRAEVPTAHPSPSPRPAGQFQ

B1: toripalimab Fab L.S25A (Fab, V domains shown)
VH: QGQLVQSGAEVKKPGASVKVSCKASGYTFTDYEMHWVRQAPIHGLEWIGVIESETGGTAYNQKFKGRVTITADKSTSTAYMELSSLRSEDTAVYYCAREGITTVATTYYWYFDVWGQGTTVTVSS
VL: DVVMTQSPLSLPVTLGQPASISCRASQSIVHSNGNTYLEWYLQKPGQSPQLLIYKVSNRFSGVPDRFSGSGSGTDFTLKISRVEAEDVGVYYCFQGSHVPLTFGQGTKLEIK
notes: as the heavy chain of Sm3; light chain of Sm3 with this change; numbers count from the chain's first residue; source: Brevibacillus, culture supernatant (ammonium sulfate precipitate); not shown: 6xHis, C-terminal, kept; 6xHN, C-terminal, kept
The Kd is the concentration at which binding is half-saturated. Read a high Kd as a looser complex. For orientation: koff means the rate constant with which the complex falls apart. A high value points to a short-lived complex. Broadly, the kon is the rate constant with which the complex forms. In test [1], B1 showed a dissociation constant (Kd) of less than 0.503 nM, a koff of less than 1e-05 s⁻¹ and a kon of 19900 M⁻¹ s⁻¹. In test [2], this molecule showed an equilibrium dissociation constant (Kd) of 65.2 nM, a koff of 0.00369 s⁻¹ and a kon of 56600 M⁻¹ s⁻¹.

B2: toripalimab Fab L.S26Y (Fab, V domains shown)
VH: QGQLVQSGAEVKKPGASVKVSCKASGYTFTDYEMHWVRQAPIHGLEWIGVIESETGGTAYNQKFKGRVTITADKSTSTAYMELSSLRSEDTAVYYCAREGITTVATTYYWYFDVWGQGTTVTVSS
VL: DVVMTQSPLSLPVTLGQPASISCRSYQSIVHSNGNTYLEWYLQKPGQSPQLLIYKVSNRFSGVPDRFSGSGSGTDFTLKISRVEAEDVGVYYCFQGSHVPLTFGQGTKLEIK
notes: as for B1
In test [1], B2 yielded a Kd of less than 0.573 nM, a koff of less than 1e-05 s⁻¹ and a kon of 17500 M⁻¹ s⁻¹. Further, in test [2], the Kd was found to be 152 nM, the koff stood at 0.00675 s⁻¹ and the kon was determined as 44500 M⁻¹ s⁻¹.

B3: toripalimab Fab L.Q27Y (Fab, V domains shown)
VH: QGQLVQSGAEVKKPGASVKVSCKASGYTFTDYEMHWVRQAPIHGLEWIGVIESETGGTAYNQKFKGRVTITADKSTSTAYMELSSLRSEDTAVYYCAREGITTVATTYYWYFDVWGQGTTVTVSS
VL: DVVMTQSPLSLPVTLGQPASISCRSSYSIVHSNGNTYLEWYLQKPGQSPQLLIYKVSNRFSGVPDRFSGSGSGTDFTLKISRVEAEDVGVYYCFQGSHVPLTFGQGTKLEIK
notes: as for B1
In test [1], B3 gave a Kd of less than 0.342 nM, a koff of less than 1e-05 s⁻¹ and a kon of 29200 M⁻¹ s⁻¹. Moreover, in test [2], binding was characterised by a dissociation constant (Kd) of 216 nM, the dissociation rate constant (koff) is 0.0122 s⁻¹ and the on-rate constant (kon) worked out at 56500 M⁻¹ s⁻¹.

B4: toripalimab Fab L.Q27A (Fab, V domains shown)
VH: QGQLVQSGAEVKKPGASVKVSCKASGYTFTDYEMHWVRQAPIHGLEWIGVIESETGGTAYNQKFKGRVTITADKSTSTAYMELSSLRSEDTAVYYCAREGITTVATTYYWYFDVWGQGTTVTVSS
VL: DVVMTQSPLSLPVTLGQPASISCRSSASIVHSNGNTYLEWYLQKPGQSPQLLIYKVSNRFSGVPDRFSGSGSGTDFTLKISRVEAEDVGVYYCFQGSHVPLTFGQGTKLEIK
notes: as for B1
As for B4, in test [1], the dissociation constant (Kd) was less than 0.831 nM, the off-rate constant (koff) was less than 1e-05 s⁻¹ and the on-rate constant (kon) came to 12000 M⁻¹ s⁻¹. For the same molecule, in test [2], the equilibrium dissociation constant (Kd) amounted to 219 nM, the koff was 0.00876 s⁻¹ and the kon turned out to be 40100 M⁻¹ s⁻¹.

B5: toripalimab Fab L.S25Y (Fab, V domains shown)
VH: QGQLVQSGAEVKKPGASVKVSCKASGYTFTDYEMHWVRQAPIHGLEWIGVIESETGGTAYNQKFKGRVTITADKSTSTAYMELSSLRSEDTAVYYCAREGITTVATTYYWYFDVWGQGTTVTVSS
VL: DVVMTQSPLSLPVTLGQPASISCRYSQSIVHSNGNTYLEWYLQKPGQSPQLLIYKVSNRFSGVPDRFSGSGSGTDFTLKISRVEAEDVGVYYCFQGSHVPLTFGQGTKLEIK
notes: as for B1
Take B5: in test [1], the affinity, expressed as Kd, was 1.93 nM; the koff was 1.18e-05 s⁻¹; the kon came to 6090 M⁻¹ s⁻¹. Moreover, in test [2], binding was put at a Kd of 125 nM, the koff is 0.00412 s⁻¹ and the kon came out at 32900 M⁻¹ s⁻¹.

B6: toripalimab Fab L.S26A (Fab, V domains shown)
VH: QGQLVQSGAEVKKPGASVKVSCKASGYTFTDYEMHWVRQAPIHGLEWIGVIESETGGTAYNQKFKGRVTITADKSTSTAYMELSSLRSEDTAVYYCAREGITTVATTYYWYFDVWGQGTTVTVSS
VL: DVVMTQSPLSLPVTLGQPASISCRSAQSIVHSNGNTYLEWYLQKPGQSPQLLIYKVSNRFSGVPDRFSGSGSGTDFTLKISRVEAEDVGVYYCFQGSHVPLTFGQGTKLEIK
notes: as for B1
For B6, in test [1], the equilibrium dissociation constant (Kd) came out at 0.802 nM, the off-rate constant (koff) turned out to be 1.95e-05 s⁻¹ and the on-rate constant (kon) was found to be 24300 M⁻¹ s⁻¹. In test [2], this molecule showed a dissociation constant (Kd) of 75 nM, a koff of 0.00379 s⁻¹ and a kon of 50500 M⁻¹ s⁻¹.

The values are drawn from publication PMC10663500, “High-throughput analysis system of interaction kinetics for data-driven antibody design” (Scientific Reports, 2023).
